Where a chain is given by its changes, count along the chain named. Names may count otherwise. Ends that are not written are not given here.
T1: biotinylated peptide corresponding to residues 117 to 126 of human alpha synuclein (PVDPDNEAYE) (human, also: biotinylated, position not given here)
T1 construct: Captured on streptavidin plates for the ELISA
T1 peptide: PVDPDNEAYE

B1: Antibody 5811gL8gH4 IgG4P (antibody, V domains shown)
VH: EVQLVESGGGLVKPGGSLRLSCAASGFTFNNAAMYWVRQAPGKGLEWVARIRTKPNNYATSYADSVKGRFTISRDDSKNTLYLQMNSLKTEDTAVYYCTADYSRGDRWGQGTMVTVSS
VL: DIQMTQSPSSLSASVGDRVTITCKASQNINKNLDWYQQKPGKAPKLLIYYANNLQTGVPSRFSGSGSGTDFTLTISSLQPEDFATYYCYQYKNGWTFGQGTKVEIKR
B2: Antibody 5811gL5gH4 IgG4P (antibody, V domains shown)
VH: B1 VH
VL: B1 VL with F71Y
notes: also called VR5811
B3: Antibody 5811gL14gH4 IgG4P (antibody, V domains shown)
VH: B1 VH
VL: B1 VL with G94A
B4: rat-mouse chimeric recombinant antibody 5811 mFab (Fab, V domains shown)
VH: EMQLVESGGGLVQPKESLKISCAASGFTFNNAAMYWVRQAPGKGLEWVARIRTKPNNYATSYADSVKGRFTISRDDSKSMVYLQMDNLKSEDTAMYYCTADYSRGDRWGQGVMVTVSS
VL: NIQMTQSPPVLSASVGDRVTLSCKASQNINKNLDWYQQKHGEAPKLLMYYANNLQTGIPSRFSGSGSGTDYTLTISSLQPEDVATYYCYQYKNGWTFGGGTKLELKR
B5: Chimeric rat-human 5811 antibody (antibody, V domains shown)
VH: B4 VH
VL: NIQMTQSPPVLSASVGDRVTLSCKASQNINKNLDWYQQKHGEAPKLLMYYANNLQTGIPSRFSGSGSGTDYTLTISSLQPEDVATYYCYQYKNGWTFGGGTKLELK
notes: It was prepared like the humanized antibodies, with the human kappa constant region (Km3) and human gamma-4 with S241P (IgG4P); also called parental rat-human antibody
B6: rat-mouse chimeric recombinant antibody 5811 mIgG1 (antibody, V domains shown)
VH: B4 VH
VL: B4 VL
B7: peptide AS104-113 (peptide)
peptide: Ac-EEGAPQEGIL-NH2
notes: Synthetic peptide of human alpha synuclein

Assays:
[1] = target: T2, recombinant human alpha synuclein fibrils (human, UniProt P37840 1-140); test: cell-based or functional assay
[2] = target: T2, recombinant human alpha synuclein …; test: kinetics on alpha synuclein fibrils; method not named in Example 4 (ka1/kd1 as in the Biacore bivalent analyte model)
[3] = target: T2, recombinant human alpha synuclein …; test: cell-based or functional assay; remark: listed apart in the source
[4] = target: T2, recombinant human alpha synuclein …; test: kinetics on human fibril; method not named (same values as Table 5)
[5] = target: B4; test: competitive SPR (Biacore 3000): 50 nM 5811 mFab pre-incubated with 1 µM peptide, injected over immobilised human alpha synuclein monomer and fibrils
Experimental: Recombinant human alpha synuclein monomer and pre-formed alpha synuclein fibrils were immobilized on a CM5 chip using a Biacore 3000 instrument (GE Healthcare). Following activation of the carboxymethyl dextran surface by injection of 100 μl of a fresh 1:1 (v/v) mixture of 50 mM N-hydroxysuccimide and 200 mM 1-ethyl-3-(3-dimethylaminopropyl)-carbodiimide at a flow rate of 10 μl/min HBS-EP (GE Healthcare) as running buffer, coupling was achieved by injecting 100 μl of monomer and fibrils, at 5 μM in 10 mM acetate pH 5.0, over separate flow cells. A reference flow cell was activated in the same manner and then all flow cell surfaces were deactivated with a 50 μl pulse of 1 M ethanolamine.HCl pH 8.5.
Peptide solutions were prepared in running buffer at 100 μM and a peptide blank control prepared as a 1 in 100 dilution of DMSO in running buffer. […] Sensograms were recorded for each sample by injecting 30 μl of the mixture at 10 μl/min and recording a report point 5 seconds before the end of the injection. The chip was regenerated at the end of each cycle by two 10 μl injections of 40 mM HCl and one injection of 5 mM NaOH. Control cycles were alternated with peptide cycles.

[6] = target: T3, recombinant full-length human alpha synuclein monomer (human, UniProt P37840 1-140); test: SPR (Biacore T200), antigen amine-coupled to CM5 chip, Fab as analyte, 1:1 model
Experimental: (§1) Interaction kinetics were determined by using surface plasmon resonance technology on a Biacore T200 instrument. Three different ligands including recombinant full-length human alpha synuclein monomer, purified recombinant human alpha synuclein fibrils, and purified recombinant mouse alpha synuclein fibrils, prepared as described herein, were each immobilized on three different flow cells of a CM5 chip surface using amine-coupling chemistry. The three ligands were prepared in 10 mM NaAc, pH 3.5, and immobilized onto separate flow cell surfaces to reach an immobilization level of about 30 response units (RU) for alpha synuclein monomer, about 40 RU for human alpha synuclein fibrils, and about 300 RU for mouse alpha synuclein fibrils respectively, at a flow rate of 10 μl/min. The buffer HBS-EP+(GE healthcare Bio-Sciences AB) was used as running buffer for both ligand immobilization and kinetics assay. […] The surface was regenerated by one injection of 50 mM HCl for 90 s at 10 μl/min, and another injection of 50 mM HCl for 60 s at 10 μl/min. The data were analyzed using the Biacore T200 evaluation software (version 3.0) using the bivalent analyte model with assumed no bulk contribution (RI=0) and global Rmax for mIgG1 format, and 1:1 model with flexible bulk contribution (local RI) and global Rmax.

[7] = target: T2, recombinant human alpha synuclein …; test: as above
Experimental: as §1

[8] = target: T4, recombinant mouse alpha synuclein fibrils (mouse, UniProt O55042 1-140); test: as above
Experimental: as §1

[9] = target: T1, biotinylated peptide corresponding to …; test: streptavidin-capture ELISA on biotinylated peptide PVDPDNEAYE, HRP secondary antibody, TMB, OD 630 nm
Experimental: Purified rat-mouse chimeric antibodies were then subject to further screening by ELISA. […] Plates were blocked with 1% w/v PEG/PBS and then incubated with several dilutions of purified transient supernatant. Secondary HRP-conjugated goat anti-mouse IgG Fc antibody (Stratech Scientific Ltd/Jackson ImmunoResearch) was added to plates, followed by visualization of binding with TMB substrate (3,3′,5,5′-Tetramethylbenzidine, from EMD Millipore; 10 μl/well).

[10] = target: T5, human beta synuclein (rPeptide) (human, UniProt Q16143 1-134); test: Western blot
T5 construct: also called rPeptide beta synuclein; human betα-synuclein
Experimental: The binding of antibodies raised against human alpha synuclein to human beta synuclein were tested by Western blot using rPeptide beta synuclein. […] The membrane was blocked in PBS with 3% BSA and 0.1% Tween20. […] The blot was washed extensively in PBS with 0.1% Tween20, PBS and water. Chemi-luminescence was measured after addition of ECL Western blot substrate (Pierce).
The blot was washed after 1-hour incubation at room temperature with 0.1% Tween in PBS.

[11] = target: T3, recombinant full-length human alpha …; test: SPR (Biacore T200), antigen amine-coupled to CM5 chip, IgG as analyte, bivalent analyte model (KD1)
Experimental: as §1

[12] = target: T2, recombinant human alpha synuclein …; test: as above
Experimental: as §1

[13] = target: T4, recombinant mouse alpha synuclein …; test: as above
Experimental: as §1

T5 sequence (Q16143 whole entry): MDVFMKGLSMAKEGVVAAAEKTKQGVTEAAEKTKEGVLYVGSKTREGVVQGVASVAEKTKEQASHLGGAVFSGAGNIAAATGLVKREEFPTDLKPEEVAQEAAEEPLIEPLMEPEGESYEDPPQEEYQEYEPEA

B1
IC50, aggregation assay on mouse primary neurons (pSer129 alpha synuclein signal) [1]: < 5 nM | IC50, cell-based aggregation assay (HEK cells expressing alpha synuclein, % pSer129+ cells) [1]: ≤ 5 nM | Kd [2]: 15.9 pM | koff [2]: 5.17e-05 s⁻¹ | kon [2]: 3.26e+06 M⁻¹ s⁻¹

B2
IC50, aggregation assay on mouse primary neurons (pSer129 alpha synuclein signal) [1]: < 5 nM | IC50, cell-based aggregation assay (HEK cells expressing alpha synuclein, % pSer129+ cells) [1]: ≤ 5 nM | IC50 (nM), cell-based aggregation assays [3]: < 5 nM | Kd [4]: 15 pM | koff [4]: 4.1e-05 s⁻¹ | kon [4]: 2.74e+06 M⁻¹ s⁻¹ | Kd [2]: 15 pM | koff [2]: 4.1e-05 s⁻¹ | kon [2]: 2.74e+06 M⁻¹ s⁻¹

B3
IC50, aggregation assay on mouse primary neurons (pSer129 alpha synuclein signal) [1]: < 5 nM | IC50, cell-based aggregation assay (HEK cells expressing alpha synuclein, % pSer129+ cells) [1]: ≤ 5 nM | Kd [2]: 18.5 pM | koff [2]: 2.04e-05 s⁻¹ | kon [2]: 1.1e+06 M⁻¹ s⁻¹

Ac-DNEAYEMPSE-NH2 [peptide AS121-130]
binding result [5]: no binding (tested: 1 µM)

Ac-YEMPSEEGYQ-NH2 [peptide AS125-134]
binding result [5]: no binding (tested: 1 µM)

Ac-GILEDMPVDP-NH2 [peptide AS111-120]
binding result [5]: no binding (tested: 1 µM)

Ac-LEDMPVDPDN-NH2 [peptide AS113-122]
binding result [5]: binds

Ac-SEEGYQDYEP-NH2 [129-138]
binding result [5]: no binding (tested: 1 µM)

Ac-QEGILEDMPV-NH2 [peptide AS109-118]
binding result [5]: no binding (tested: 1 µM)

Ac-DMPVDPDNEA-NH2 [peptide AS115-124]
binding result [5]: binds

Ac-EAYEMPSEEG-NH2 [peptide AS123-132]
binding result [5]: no binding (tested: 1 µM)

Ac-EGYQDYEPEA-OH (also called AS131-140) [131-140]
binding result [5]: no binding (tested: 1 µM)

Ac-MPSEEGYQDY-NH2 [peptide AS127-136]
binding result [5]: no binding (tested: 1 µM)

B4
Kd [6]: 290 pM | Kd [7]: 600 pM | Kd [8]: 42900 pM | EC50 (read off the curve) [9]: ~0.4 µg/mL

B5
Kd [2]: 15.6 pM

B6
binding result [10]: no binding (tested: 1 micro gram of synuclein per lane) | Kd [11]: 530 pM | Kd [12]: 30 pM | Kd [13]: 119000 pM

B7
binding result [5]: no binding (tested: 1 µM)

Ac-DPDNEAYEMP-NH2 [peptide AS119-128]
binding result [5]: binds

Source: US20210101964A1 (UCB, published 2021)
